Ends that are not written are not given here.
How the values were obtained:
K280-ac protein fragment [1] = target: T1, K280-ac protein fragment (human); assay: BLI, Octet K2; antibody fixed on AR2G biosensor, K280-ac fragment in solution
T1 construct: also called mAC
T1 peptide: VQIINK(Ac)KLDLSN
Experimental: (§1) An affinity between the K280-ac protein fragment prepared in Preparation Example 1 and the ADEL-Y01m antibody prepared in Preparation Example 2 was measured through the Octet® K2 System (Fortebio).
(§2) The ADEL-Y01m antibody was fixed on AR2G biosensor according to the manufacturer's manual. The surface of the biosensor was hydrated with water for 10 minutes, and then activated using a mixture of 20 mM 1-ethyl-3-[3-dimethylaminopropyl] carbodiimide hydrochloride (EDC) and 10 mM N-hydroxysulfosuccinimide (s-NHS). The ADEL-Y01m antibody was fixed on the activated biosensor using 10 mM sodium acetate buffer (pH 5.0) and quenched with 1M ethanol amine (pH 8.0) for 5 minutes. The biosensor on which the ADEL-Y01m antibody is fixed was immersed in 1×PBS buffer (pH 7.4) for 60 seconds, to establish a baseline. Then, the biosensor was immersed for 60 seconds in wells containing different concentrations of the K280-ac protein fragment (antigen) or BSA-bound peptide. Thereafter, the biosensor was immersed again in 1×PBS buffer (pH 7.4) for 10 minutes so that dissociation occurs. The experimental data were evaluated by Octet Data Analysis (SW version: 9.0.0.10).

Tau (Acetylation -) = target: T2, Tau (Acetylation -); assay: western blot
T2 construct: also called non-Ac tau protein; non-acetylated wild type tau protein
T2 sequence (tau protein, as listed by the source): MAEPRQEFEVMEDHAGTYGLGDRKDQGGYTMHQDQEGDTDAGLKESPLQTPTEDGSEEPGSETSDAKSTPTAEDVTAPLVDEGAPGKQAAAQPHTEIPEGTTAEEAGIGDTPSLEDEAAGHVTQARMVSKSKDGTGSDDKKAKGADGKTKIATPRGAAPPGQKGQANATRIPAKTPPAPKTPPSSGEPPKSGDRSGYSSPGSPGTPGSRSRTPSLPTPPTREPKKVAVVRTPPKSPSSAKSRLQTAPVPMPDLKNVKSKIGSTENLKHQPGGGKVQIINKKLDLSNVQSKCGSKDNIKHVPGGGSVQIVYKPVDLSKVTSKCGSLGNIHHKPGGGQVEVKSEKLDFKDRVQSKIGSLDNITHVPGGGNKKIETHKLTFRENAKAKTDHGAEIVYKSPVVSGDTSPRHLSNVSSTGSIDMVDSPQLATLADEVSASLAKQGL
Experimental: (§3) In order to identify specific binding of the ADEL-Y01m antibody prepared in Preparation Example 2 to acetylated tau protein, the wild-type tau protein and the tau protein (Tau K280A) in which the 280th amino acid lysine is replaced with alanine were acetylated in vitro. Here, acetylation of the wild-type Tau protein and the Tau K280A protein was performed in the same manner as in the preparation method of the acetylated K18 protein fragment in Preparation Example 1. Then, an antigen-antibody specific binding reaction of the ADEL-Y01m antibody was checked through western blotting.
(§4) First, the concentrations of the wild-type Tau protein and the Tau K280A protein were measured through Bradford Assay. Each of the proteins was mixed with 4× sample buffer (60 mM Tris-HCl [pH 6.8], 2% w/v SDS, 25% v/v glycerol, 14.4 mM v/v β-mercaptoethanol, and bromophenol blue). Thereafter, each protein was electrophoresed on an SDS-PAGE gel. Then, the electrophoresed gel was separated and transferred onto a PVDF membrane (BioRad, California, USA). Treatment with a blocking buffer (0.1% v/v Tween-20 [PBST], 3% w/v BSA, or 5% v/v skim milk in PBS buffer) was performed and reaction was allowed to proceed for 1 hour. Then, treatment with an anti-acetyl-lysine antibody (anti-acetyl-lysine, Cell Signaling, 9441) or ADEL-Y01m antibody as a primary antibody was performed and reaction was allowed to proceed at 4° C. overnight. The next day, the PVDF membrane was washed three times with a washing buffer (0.1% v/v Tween-20 [PBST] in PBS buffer), and then treated with HRP-labeled anti-mouse IgG antibody (Bioxcell, BE0083). The PVDF membrane was treated with a chemiluminescent reagent (Thermo Fisher Scientific). Then, measurement and analysis were performed using x-ray film and ImageJ software (NIH, Bethesda, Md.).

[2] = target: T3, acetylated Tau K280A protein (human, UniProt P10636 2-758, acetylated in vitro with P300 enzyme and acetyl CoA; sites not stated); assay: western blot
T3 construct: Tau K280A acetylated in the same manner as the acetylated K18 fragment; also called Tau K280A (acetylated)
T3 sequence (P10636 other isoform, or with tags, fused parts or gaps K280A K280A limits assumed): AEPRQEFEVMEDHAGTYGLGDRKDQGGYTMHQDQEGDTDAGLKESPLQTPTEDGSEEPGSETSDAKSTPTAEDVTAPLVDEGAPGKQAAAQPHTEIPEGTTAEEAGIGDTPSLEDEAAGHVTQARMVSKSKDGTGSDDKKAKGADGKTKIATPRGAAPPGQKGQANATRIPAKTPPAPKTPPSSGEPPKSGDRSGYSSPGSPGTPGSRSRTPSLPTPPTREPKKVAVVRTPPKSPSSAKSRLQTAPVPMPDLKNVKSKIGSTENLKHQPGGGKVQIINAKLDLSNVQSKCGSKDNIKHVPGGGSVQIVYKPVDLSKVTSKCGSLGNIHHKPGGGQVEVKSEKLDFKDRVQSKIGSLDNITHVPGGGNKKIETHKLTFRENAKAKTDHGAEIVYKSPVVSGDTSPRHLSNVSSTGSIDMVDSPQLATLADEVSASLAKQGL
Experimental: as §3, §4

Tau K280A protein = target: T4, Tau K280A protein (human, UniProt P10636 2-758); assay: western blot
T4 construct: Tau protein with lysine 280 replaced by alanine, not acetylated
T4 sequence (P10636 other isoform, or with tags, fused parts or gaps K280A K280A limits assumed): as above
Experimental: as §3, §4

K280-ac protein fragment [3] = target: T1, K280-ac protein fragment; assay: Octet K2 system, antibody fixed on AR2G biosensor, antigen in solution
Experimental: as §1, §2

Kd (K280-ac protein fragment [1]): 0.257 nM
binding result (Tau (Acetylation -)): no binding
binding result [2]: no binding
binding result (Tau K280A protein): no binding
koff (K280-ac protein fragment [3]): 0.000157 s⁻¹
kon (K280-ac protein fragment [3]): 447000 M⁻¹ s⁻¹
B1: ADEL-Y01m antibody (antibody, V domains shown)
VH: EVQLEESGPSLVKPSQTLSLTCSVTGDSITSGYWNWIRKFPGNKLEYMGYIRYSGRTYYNPSLKSRISITRDTSKNQFYLQLISVTTEDTATYYCASVYFTYWGQGTLVTVSS
VL: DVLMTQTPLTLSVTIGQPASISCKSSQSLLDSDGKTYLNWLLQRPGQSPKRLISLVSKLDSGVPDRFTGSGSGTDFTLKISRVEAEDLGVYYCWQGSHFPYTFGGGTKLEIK
notes: Mouse monoclonal antibody from a hybridoma; also called Y01m01; antibody produced from the #15E5 hybridoma cell line (clone #1)
